This passage reports Kd results from PMC9596850, “Tonsillar Microbiome‐Derived Lantibiotics Induce Structural Changes of IL‐6 and IL‐21 Receptors and Modulate Host Immunity” (Advanced Science, 2022).

One may read the Kd as the equilibrium constant for the complex coming apart.

What all share (settings): both partners purified
The target of assay [1] is T1, murine IL-6 receptor subunit alpha (mouse, UniProt P22272 20-364).
T1 construct: also called mIL-6Rα; IL-6Rα; source: bought: abcam
T1 sequence (looked up): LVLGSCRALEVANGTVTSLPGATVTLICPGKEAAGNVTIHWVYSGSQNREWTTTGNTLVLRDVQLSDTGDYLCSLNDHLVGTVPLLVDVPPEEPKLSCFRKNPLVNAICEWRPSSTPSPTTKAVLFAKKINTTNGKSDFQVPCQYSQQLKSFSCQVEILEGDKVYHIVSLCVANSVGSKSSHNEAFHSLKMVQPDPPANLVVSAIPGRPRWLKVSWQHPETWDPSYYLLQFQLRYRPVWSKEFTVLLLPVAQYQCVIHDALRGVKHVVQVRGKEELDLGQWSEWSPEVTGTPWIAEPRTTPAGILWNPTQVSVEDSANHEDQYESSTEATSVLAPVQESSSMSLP
Nature of the assay: SPR; Biacore 8K; receptor immobilised on a CM5 chip by amine coupling, 25 °C, PBS-P running buffer, analyte with 5% DMSO; 1:1 binding model. (In general: SPR reads the build-up and loss of mass on a sensor chip optically.)

Another assay deals with murine IL-21 (mouse, UniProt Q9ES17 18-146). As to the kind of experiment: SPR; Biacore 8K; receptor immobilised on a CM5 chip by amine coupling, 25 °C, PBS-P running buffer, analytes with 5% DMSO; steady state affinity model.
The target of assay [2] is T2, murine IL-6 receptor subunit alpha (mouse, UniProt P22272 20-364).
T2 construct: also called IL-6Rα; mIL-6R; source: bought: abcam
T2 sequence (looked up): T1 sequence (looked up)
As to the kind of experiment: SPR; Biacore 8K; murine IL-6Rα or IL-21R (20 nM) immobilised on a CM5 chip by amine coupling, 25 °C, PBS-P running buffer; analytes with 5% DMSO injected serially (salivaricin B and mutants 12.5-800 µM; mIL-6 0.003125-0.1 µM; mIL-21 0.625-5 nM); KD of salivaricins from a steady-state affinity model.

A further assay deals with T3, murine IL-21 receptor (mouse, UniProt Q9JHX3 20-237).
T3 construct: also called mIL-21R; Mouse IL-21R; source: bought: Sino Biological
The description is as above.

Assay [3] deals with T4, recombinant mouse IL-6 receptor subunit alpha protein with the Fc region of mouse IgG2a (mouse, UniProt P22272 20-364).
T4 construct: also called Fc-IL-6Rα; IL-6Rα; source: bought: abcam
T4 sequence (looked up): T1 sequence (looked up)
As to the kind of experiment: SPR; Biacore 8K; receptor immobilised on CM5 chip by amine coupling, 25 °C, PBS-P running buffer; analytes with 5% DMSO injected serially; steady-state affinity model.

The target of assay [4] is T5, mouse IL-21 receptor protein with the Fc region of human IgG1 (mouse, UniProt Q9JHX3 20-237).
T5 construct: also called IL-21R-Fc; murine IL-21R; source: bought: Sino Biological
Described as above.

In assay [5] the target is T1, murine IL-6 receptor subunit alpha. Nature of the assay: SPR; Biacore 8K; receptor immobilised on a CM5 chip by amine coupling, 25 °C, PBS-P running buffer, analytes with 5% DMSO; steady state affinity model.

B1: murine IL-6 (ligand, mouse, UniProt P08505 25-211, looked up)
chain: FPTSQVRRGDFTEDTTPNRPVYTTSQVGGLITHVLWEIVEMRKELCNGNSDCMNNDDALAENNLKLPEIQRNDGCYQTGYNQEICLLKISSGLLEYHSYLEYMKNNLKDNKKDKARVLQRDTETLIHIFNQEVKDLHKIVLPTPISNALLTDKLESQKEWLRTKTIQFILKSLEEFLKVTLRSTRQT
notes: also called mIL-6
In assay [1], B1 returned a Kd of 0.0137 µM.

B2: murine IL-21 receptor (receptor)
chain: not shown
notes: also called mIL-21R; source: bought: Sino Biological
B2 yielded a dissociation constant Kd with murine IL-21 of 0.0349 nM.

B3: salivaricin B (peptide)
peptide: GGGVIQTISHECRMNSWQFLFTCCS
notes: salivaricin B, lantibiotic peptide commonly synthesized by Streptococcus salivarius; chemically synthesized; Molecular weight on the synthesis report is 2805.23; also called SalB; source: synthetic peptide (solid-phase synthesis, RoYo Biotech; HPLC purified, purity more than 96%)
B3: the dissociation constant (Kd) in assay [2] was found to be 354 µM; in the assay with murine IL-21 receptor, 12.6 µM.

B4: salivaricin B (peptide)
peptide: GGGVIQTISHECRMNSWQFLFTCCS
notes: salivaricin B, lantibiotic peptide commonly synthesized by S. salivarius; Chemically synthesized; also called SalB; source: synthetic peptide (solid-phase, RoYo Biotech; HPLC, purity more than 96%)
With B4, the Kd turned out to be 160 µM in assay [3] and 10.1 µM in assay [4].

B5: salivaricin A2 (peptide)
peptide: KRGTGWFATITDDCPNSVFVCC
notes: salivaricin A2, lantibiotic peptide commonly synthesized by Streptococcus salivarius; also called SalA2; source: synthetic peptide (solid-phase, RoYo Biotech), HPLC purified, purity more than 96%
Regarding B5, binding in assay [5] was put at a Kd of 51.4 µM.
